Assay results reported in patent US20220296727A1, “Immunoconjugate” (DendroCyte BioTech Pty Ltd, priority 2019, published 2022).

Columns and labels:
HL-60 = conditions: comparator agents; cited from earlier work
U937 = conditions: comparator agents; cited from earlier work
THP-1 = conditions: comparator agents; cited from earlier work
human CD300f = human CD300f (human, UniProt Q8TDQ1 20-290); experiment: cell-based or functional assay
HL-60 cells = experiment: Internalisation assay by flow cytometry; format: cell-based
Description: DCR-2 (IgG1), and as an isotype control, the anti-tetanus toxoid mAb, CMRF-81 (IgG1) which were both produced, purified and directly conjugated to phycoerythrin (PE) in house (Abadir et al. Mol Oncol. 2019; 13(10):2107-2120). Cells were incubated with DCR-2-PE or CMRF-81-PE (10 μg/ml) on ice for 20 min, washed to remove unbound mAb then incubated at 37° C./5% CO2 to allow internalisation for the indicated times.
After incubation, residual mAb remaining on the cell surface was detected with a secondary goat anti-mouse (GAM) IgG-AF488 antibody. Cells were fixed in 1% paraformaldehyde/PBS for flow cytometry analysis. The surface and total relative Mean Fluorescent Index (MFI) was calculated as the (MFI of binding antibody at time point−MFI of isotype control at time point) at 37° C./(MFI of binding antibody at time point−MFI of isotype control at time point) at 0° C. The percent internalised was assessed by 100−(relative MFI surface staining/relative MFI total staining). In immunofluorescent microscopy experiments cells were stained with DCR-2 then air-dried and fixed with 4% paraformaldehyde or incubated for 37° C. for 30 minutes then fixed. Rehydration was performed using 1% BSA/PBS prior to staining with GAM IgG-AF488 antibody and 18 μM DAPI (ThermoFisher).

dendritic cells = experiment: Activation marker expression on dendritic cells after LPS; format: cell-based, human; conditions: HLA-DR, CD11c, CD80, CD83; 200 pmol
Description: The activity of DCR-2PBD on the upregulation of activation markers on DC was measured by incubating whole PBMC with DCR-2PBD or no antibody for […] before washing, followed by 12 hours of LPS stimulation. Control DC were not exposed to DCR-2PBD or LPS. Myeloid DC were gated out by excluding dead cells, Lin^+(CD3, CD20, CD19, CD56, CD14), then gating on HLA-DR^+ and CD11c^+ cells. The activation markers CD80 and CD83 were assessed via flow cytometry. The changes on activation were determined by comparing activated DC incubated with or without DCR-2PBD compared to inactivated DC.
PBMC were incubated in complete RPMI media with or without DCR-2-PBD (200 pmol). After 12 hours, washed cells were incubated for a further 12 hours with or without LPS then phenotyped for the expression of activation markers on DC populations. MoDC were derived from CD14+ monocytes as described previously (Fromm et al. J Leukoc Biol. 2020; 107(2):323-339). DCR-2-PBD or isotype-PBD (200 pmol) were added for 72 hours prior to enumeration of live cells by flow cytometry.

AML = experiment: NOS/SCID mouse model of AML; format: in vivo; conditions: unconjugated antibody alone

Chain of human CD300f (Q8TDQ1 20-290): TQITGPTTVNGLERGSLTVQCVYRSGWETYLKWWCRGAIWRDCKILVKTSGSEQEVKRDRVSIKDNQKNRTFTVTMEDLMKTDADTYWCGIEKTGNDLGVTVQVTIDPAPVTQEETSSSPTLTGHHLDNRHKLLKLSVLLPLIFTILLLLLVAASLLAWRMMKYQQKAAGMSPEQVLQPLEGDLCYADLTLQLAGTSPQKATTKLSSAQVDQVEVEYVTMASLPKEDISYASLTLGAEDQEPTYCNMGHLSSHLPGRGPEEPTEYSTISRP

For `CS(=O)(=O)OCCCCOS(C)(=O)=O` [Busulfan], the IC50 (HL-60) is listed as 354000 nM.

In the case of `COc1cccc2c1C(=O)c1c(O)c3c(c(O)c1C2=O)C[C@@](O)(C(=O)CO)C[C@@H]3O[C@H]1C[C@H](N)[C@H](O)[C@H](C)O1` [Doxorubicin], the IC50 (HL-60) is listed as 345000 nM.

For “Gemtuzumab-Ozogamicin: approved AML therapeutic which targets CD33”, the IC50 (U937) is listed as 0.127 nM, the IC50 (THP-1) is listed as 0.04 nM and the IC50 (HL-60) is listed as 0.0133 nM.

B1: DCR-2-pyrrolobenzodiazepine (PBD) immunoconjugate (antibody, V domains shown)
VH: MESGGGLVQPGGPLKLSCAASGFGFSGSWMSWVRQAPGKGLEWIGQINPDSSTINYTPSLKDKFIISRDNAKNTLYLQINKVRSEDTALYYCARRGFFEGYSAWFAYW
VL: ILMTQTPKFLLVSAGDRVTITCKASQSVSNDVAWYQQKPGQSPSLLIYYASNRNTGVPDRFTGSGYETDFTFTISTVQAEDLAVYFCQQDYTSPWTFGGG
modifications: PBD dimer linked through the Cathepsin B-cleavable linker MA-PEG4-VA-PBD to native cysteines (reduced interchain disulfides); drug to antibody molar ratio 3.3; positions not given
With B1 the “IC50 (pM), cytotoxicity on HL-60 cells” value (human CD300f) was 5.45 pM, the “IC50 (pM), cytotoxicity on THP-1 cells” value (human CD300f) was 29.9 pM and the “IC50 (pM), cytotoxicity on U937 cells” value (human CD300f) was 6.74 pM.

B2: DCR-2: murine IgG1 kappa monoclonal antibody binding the extracellular domain of CD300f; hybridoma CBA20160029 (antibody, V domains shown)
VH: MESGGGLVQPGGPLKLSCAASGFGFSGSWMSWVRQAPGKGLEWIGQINPDSSTINYTPSLKDKFIISRDNAKNTLYLQINKVRSEDTALYYCARRGFFEGYSAWFAYW
VL: ILMTQTPKFLLVSAGDRVTITCKASQSVSNDVAWYQQKPGQSPSLLIYYASNRNTGVPDRFTGSGYETDFTFTISTVQAEDLAVYFCQQDYTSPWTFGGG
In the case of B2, the Internalisation (HL-60 cells; 30 minutes) is reported as “significant”, the Internalisation (HL-60 cells; 180 minutes) is reported as “greater than 50%” and the “up-regulation of activation markers on dendritic cells after LPS” value (dendritic cells) is reported as “does not prevent upregulation of activation markers CD80 and CD83”. The “survival and disease burden” value (AML) was “does not prolong survival or reduce disease burden”.
